# Data published in the RNAGym collection of RNA variant scans (doi:10.7554/elife.80360).
# B1: HDV Ribozyme (parent)
# chain: GGCCGGCAUGGUCCCAGCCUCCUCGCUGGCGCCGGCUGGGCAACAUUCCGAGGGGACCGUCCCCUCGGUAAUGGCGAAUGGGACCCA
# Variants of: B1
# Experiment: self-cleavage, relative activity (ratio to wild type); higher = more cleavage; co-transcriptional
row,Variant,self-cleavage
1,G17A C26U,0.726
2,G17U C49A,0.614
3,G17A C30A,0.651
4,A16U U60G,1.15
5,C18A G35A,0.199
6,G17A U60G,0.712
7,G17C A70C,0.0536
8,C18A G40A,0.0426
9,A16U A78C,0.156
10,G17C A45U,0.107
11,A16C G31A,0.297
12,A16U C61A,1.11
13,G17C G40C,0
14,C18A G38C,0.145
15,C18A G38U,0.0652
16,G17C G74A,0.089
17,G17A C36G,0.0475
18,A16G C61U,1.26
19,A16G C61A,1.08
20,G17U G53A,0.641
21,G17U G53C,0.354
22,G17U G53U,0.42
23,G17C A51C,0.308
24,G17C C63U,0.397

row,Variant,self-cleavage
1,G17C C48U,0.175
2,A16U C26U,0.831
3,G17C C33U,0.0475
4,G17U U72C,0.142
5,G17C C44U,0.142
6,C18A C85U,0.158
7,C18A C85A,0.224
8,A16G C49A,1.08
9,A16G G81A,0.604
10,A16U A70C,0.538
11,A16U A70G,0.855
12,A16G G17U,0.643
13,A16G G17C,0.214
14,G17C U60C,0.208
15,A16C G59A,0.649
16,G17C G52A,0.415
17,G17C G52U,0.363
18,A16U A51C,0.923
19,A16U A51U,0.914
20,C18A C48U,0.0627
21,G17U C62U,0.602
22,G17U C62G,0.492
23,G17U U37C,0.612
24,A16U G55C,0.98

row,Variant,self-cleavage
1,C18A C41U,0.0339
2,G17C C66G,0.32
3,A16G G73A,0.396
4,A16G G73C,0.431
5,A16G C44U,0.615
6,A16G C44A,0.748
7,G17A A70C,0.449
8,G17A A70G,0.554
9,G17U G52U,0.517
10,G17A A56U,0.528
11,A16G C30G,0.122
12,A16G C30A,0.702
13,C18A G67A,0.163
14,G17A G76U,0.863
15,G17A G76C,0.665
16,A16U C44G,0.604
17,A16U G40C,0.365
18,A16U G73C,0.437
19,A16U G73A,0.222
20,G17A C49U,0.853
21,G17A C49G,0.565
22,A16U C64A,0.743
23,A16U U46A,0.489
24,A16U U46C,1.21

row,Variant,self-cleavage
1,A16U U46G,0.437
2,A16C G82U,0.201
3,A16U G38A,0.113
4,A16U G38U,0.253
5,A16G C64A,0.782
6,C18A G53C,0.214
7,C18A G53U,0.117
8,G17U C85U,0.614
9,G17U C85A,0.538
10,G17U C85G,0.554
11,A16G A51C,1.05
12,A16U A77G,0.739
13,A16U A43U,0.443
14,A16C G81U,0.519
15,A16C G81C,0.346
16,G17U G67A,0.564
17,G17C C64G,0.298
18,G17U C41G,0.0462
19,A16U G81A,0.813
20,A16G G53A,1.04
21,A16C G40C,0.201
22,G17A G50A,0.76
23,G17A C44G,0.268
24,A16G C63A,1.03

row,Variant,self-cleavage
1,A16G U69C,1.15
2,G17U G68A,0.478
3,G17U G68C,0.542
4,G17U C32A,0.136
5,G17U C32G,0.0386
6,G17A G52U,0.728
7,A16U U47C,0.72
8,G17C C41A,0.111
9,A16U G31C,0.0437
10,A16G G54A,0.727
11,G17C G54A,0.262
12,G17C G54U,0.256
13,A16G G74C,0.435
14,A16G G74A,0.404
15,G17U C21G,0
16,G17U C21A,0.0339
17,C18A A42C,0.0707
18,C18A A42U,0.0437
19,A16G G76C,1.12
20,A16G C58U,0.962
21,A16C U27C,0.293
22,G17C G38C,0.0831
23,G17C G38A,0.0396
24,G17U G31U,0.0723

row,Variant,self-cleavage
1,G17A C32G,0.0415
2,G17A C32U,0.369
3,A16G C41A,0.798
4,G17C G39U,0.108
5,G17C U27G,0.499
6,G17U C86U,0.612
7,C18A C75A,0.0906
8,G17A C41U,0.46
9,G17A C41A,0.47
10,A16G C18G,0.111
11,G17A C62U,0.554
12,G17C U46A,0.237
13,G17U G40C,0.189
14,A16G A87C,1.09
15,A16U C62A,0.897
16,A16U U65G,0.997
17,G17C A77G,0.0615
18,G17C A77U,0
19,A16U G67U,0.975
20,C18A C30G,0.0573
21,C18A C30A,0.141
22,G17U U47C,0.298
23,A16G G59U,1.11
24,A16G G59A,1.29

row,Variant,self-cleavage
1,A16U C84A,0.665
2,A16G G82A,0.453
3,A16G G82C,0.172
4,G17C C75U,0
5,C18A G82A,0.149
6,C18A G82C,0.122
7,A16C G29U,0.0755
8,A16G G28U,0.0519
9,G17U C61U,0.471
10,A16C U20G,0
11,A16G G38U,0.341
12,G17A C21U,0
13,G17C G29C,0.166
14,C18A C64A,0.136
15,G17U A77G,0.0536
16,G17U A77U,0.104
17,G17U A51C,0.831
18,G17A G35U,0.0906
19,C18A G52C,0.0346
20,A16C G17A,0.519
21,A16U U20A,0.0875
22,A16U U72C,0.569
23,G17A G67A,0.501
